We go through one molecule from paper PMC6189472.

The target in test [1] is TCR/CD3 complex (human (endogenous in Jurkat)) (UniProt P07766). The test is described as follows: FRAP on micropatterned antibody spots; CD6-GFP Jurkat T cells on spots of 100, 10 or 1% anti-CD3 surrounded by fibronectin; 37 C; circular ROI of 2.1 um on spots and on surrounding fibronectin; single exponential fit.
Test [2] has the same target. The experiment in a line: recruitment to antibody-coated beads (confocal microscopy); CD6-GFP Jurkat T cells on fibronectin-coated coverslips with 4.5 um anti-CD3-coated (Dynal CD3) or fibronectin-coated beads; live cells at RT; CD6-GFP intensity at bead contact against the opposite side of the cell.

Chain of UniProt P07766 (P07766 whole entry, looked up, one chain of several): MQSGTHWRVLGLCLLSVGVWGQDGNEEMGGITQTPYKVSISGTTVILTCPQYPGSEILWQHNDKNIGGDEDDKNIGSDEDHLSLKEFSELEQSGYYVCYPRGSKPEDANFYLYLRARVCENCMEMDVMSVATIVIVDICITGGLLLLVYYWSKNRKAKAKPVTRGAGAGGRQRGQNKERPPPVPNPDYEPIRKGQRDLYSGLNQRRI

B1: CD6-GFP (receptor)
chain: HPSPAPPDQLNTSSAESELWEPGERLPVRLTNGSSSCSGTVEVRLEASWEPACGALWDSRAAEAVCRALGCGGAEAASQLAPPTPELPPPPAAGNTSVAANATLAGAPALLCSGAEWRLCEVVEHACRSDGRRARVTCAENRALRLVDGGGACAGRVEMLEHGEWGSVCDDTWDLEDAHVVCRQLGCGWAVQALPGLHFTPGRGPIHRDQVNCSGAEAYLWDCPGLPGQHYCGHKEDAGAVCSEHQSWRLTGGADRCEGQVEVHFRGVWNTVCDSEWYPSEAKVLCQSLGCGTAVERPKGLPHSLSGRMYYSCNGEELTLSNCSWRFNNSNLCSQSLAARVLCSASRSLHNLSTPEVPASVQTVTIESSVTVKIENKESRELMLLIPSIVLGILLLGSLIFIAFILLRIKGKYALPVMVNHQHLPTTIPAGSNSYQPVPITIPKEVFMLPIQVQAPPPEDSDSGSDSDYEHYDFSAQPPVALTTFYNSQRHRVTDEEVQQSRFQMPPLEEGLEELHASHIPTANPGHCITDPPSLGPQYHPRSNSESSTSSGEDYCNSPKSKLPPWNPQVFSSERSSFLEQPPNLELAGTQPAFSAGPPADDSSSTSSGEWYQNFQPPPQPPSEEQFGCPGSPSPQPDSTDNDDYDDISAA
In test [1], B1 displayed a fraction of CD6-GFP immobilized on 10 and 100% αCD3 spots of 30%. Besides, in test [2], the fold enrichment at αCD3-coated beads against fibronectin-coated beads is 3 fold.
